B1: SQT(MDM2)(nt).P7041.cV5 (designed binder)
chain: MIPRLTFEEYWAQLLSAAGLSEAKPATPEIQEIVDKVKPQLEEKTNETYGKLEAVQYKTQVLASTNYYIKVRAGDNKYMHLKVFNGPPGQNADRVLTGYQVDKNKDDELTGFGKPIPNPLLGLDST
notes: also called P7041 peptide in N-terminus of SQT; SQT-MDM2 construct 2
B2: SQT(MDM2)(nt).P6W.cV5 (designed binder)
chain: MIPRLTFEHWWAQLTSGLSEAKPATPEIQEIVDKVKPQLEEKTNETYGKLEAVQYKTQVLASTNYYIKVRAGDNKYMHLKVFNGPPGQNADRVLTGYQVDKNKDDELTGFGKPIPNPLLGLDST
notes: also called P6W peptide in N-terminus of SQT; SQT-MDM2 construct 7
B3: SQT(MDM2)(nt).pMI.cV5 (designed binder)
chain: MIPRTSFAEYWNLLSPGLSEAKPATPEIQEIVDKVKPQLEEKTNETYGKLEAVQYKTQVLASTNYYIKVRAGDNKYMHLKVFNGPPGQNADRVLTGYQVDKNKDDELTGFGKPIPNPLLGLDST
notes: also called pMI peptide in N-terminus of SQT; SQT-MDM2 construct 4
B4: SQT(MDM2)(nt).pDIQ.cV5 (designed binder)
chain: MIPRETFEHWWSQLLSGLSEAKPATPEIQEIVDKVKPQLEEKTNETYGKLEAVQYKTQVLASTNYYIKVRAGDNKYMHLKVFNGPPGQNADRVLTGYQVDKNKDDELTGFGKPIPNPLLGLDST
notes: also called pDIQ peptide in N-terminus of SQT; SQT-MDM2 construct 3
B5: SQT(MDM2)(L2).P3848.cV5 (designed binder)
chain: MIPRGLSEAKPATPEIQEIVDKVKPQLEEKTNETYGKLEAVQYKTQVLASTNYYIKVRAGDNKYMHLKVFNGPLTFEHYWAQLTSPGQNADRVLTGYQVDKNKDDELTGFGKPIPNPLLGLDST
notes: also called P3848 peptide in Loop 2 of SQT; SQT-MDM2 construct 5
B6: SQT(MDM2)(L2).P1E6W.cV5 (designed binder)
chain: MIPRGLSEAKPATPEIQEIVDKVKPQLEEKTNETYGKLEAVQYKTQVLASTNYYIKVRAGDNKYMHLKVFNGPETFEHWWAQLTSPGQNADRVLTGYQVDKNKDDELTGFGKPIPNPLLGLDST
notes: also called P1E6W peptide in Loop 2 of SQT; SQT-MDM2 construct 6

The target in this experiment is T1, MDM2 (UniProt Q00987 1-491, limits assumed).
T1 construct: Endogenous MDM2 of HCT116 cells
T1 sequence (Q00987 whole entry): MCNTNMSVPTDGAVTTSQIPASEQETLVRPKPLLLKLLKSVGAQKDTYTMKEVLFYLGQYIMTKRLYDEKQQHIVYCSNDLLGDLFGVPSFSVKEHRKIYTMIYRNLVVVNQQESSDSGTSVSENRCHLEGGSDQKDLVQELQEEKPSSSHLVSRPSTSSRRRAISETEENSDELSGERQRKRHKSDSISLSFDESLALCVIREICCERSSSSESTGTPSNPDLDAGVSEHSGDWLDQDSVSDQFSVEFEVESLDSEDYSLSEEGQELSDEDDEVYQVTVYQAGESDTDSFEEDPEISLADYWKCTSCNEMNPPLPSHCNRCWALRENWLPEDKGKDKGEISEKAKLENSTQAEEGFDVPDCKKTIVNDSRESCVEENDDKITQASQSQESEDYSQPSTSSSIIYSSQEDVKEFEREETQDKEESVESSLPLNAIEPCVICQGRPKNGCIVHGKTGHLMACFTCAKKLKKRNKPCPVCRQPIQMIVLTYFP
In words: anti-V5 immunoprecipitation from transfected HCT116 cell lysates, blot probed with anti-MDM2.
As to B1, the binding result is listed as “binds”.

On to B2, for which the binding result was “binds”.

Consider B3, for which the binding result was “binds”.

B4: the binding result is on record as “binds”.

Take B5: the binding result is “binds”.

Regarding B6, the binding result was “binds”.

For the origin of these results see patent US20190119357A1 (MODERNATX, published 2019).
